According to patent US20250154278A1 (JANUX THERAPEUTICS, published 2025):
Where a chain is given by its changes, count along the chain named. In names and notes the source's numbering stands. Where two headings read alike, the source gives them in different places.

What was measured:
[1] = target: T1, Human TROP2 full length, on tumor cells (HCT116, MDAMB231, NCI-H292) (human, UniProt P09758 31-323); test: cell-based or functional assay
T1 sequence: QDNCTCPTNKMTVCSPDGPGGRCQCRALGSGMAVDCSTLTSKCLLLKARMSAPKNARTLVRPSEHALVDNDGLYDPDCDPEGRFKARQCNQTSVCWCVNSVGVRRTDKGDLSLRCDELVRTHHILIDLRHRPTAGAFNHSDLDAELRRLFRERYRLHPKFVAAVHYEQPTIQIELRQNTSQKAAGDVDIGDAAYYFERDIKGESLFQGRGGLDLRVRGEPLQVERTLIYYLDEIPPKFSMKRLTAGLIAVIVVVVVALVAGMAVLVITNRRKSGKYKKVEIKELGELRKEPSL

[2] = target: T1, Human TROP2 full length, on tumor cells …; test: cell-based or functional assay; remark: listed apart in the source
[3] = target: T1, Human TROP2 full length, on tumor cells …; test: cell-based or functional assay; remark: listed apart in the source
[4] = target: T2, Human TROP2 ECD (31-274 AA), biotinylated (human, UniProt P09758 31-274, biotinylated (site not stated)); test: TROP2 binding ELISA; the table's head prints only 'EC50', the unit is that of the axis Log [TCE nM]
T2 construct: the entry is already residues 31-274; also called Human TROP2-biotin; hTROP2-Biotin
T2 sequence: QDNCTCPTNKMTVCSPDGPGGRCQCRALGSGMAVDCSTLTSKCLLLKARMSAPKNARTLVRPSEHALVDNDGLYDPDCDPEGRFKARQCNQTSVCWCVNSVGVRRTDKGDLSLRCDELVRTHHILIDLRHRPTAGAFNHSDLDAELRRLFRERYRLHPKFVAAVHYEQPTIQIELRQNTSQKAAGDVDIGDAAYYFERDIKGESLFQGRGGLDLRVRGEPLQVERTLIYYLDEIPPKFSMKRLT

[5] = target: T3, human CD3 epsilon, biotinylated (human, UniProt P07766 23-126, limits assumed, biotinylated (site not stated)); test: CD3 binding ELISA
T3 construct: Printed in places as CD36, CD38, CD3c or CD3&; also called CD3e-bio; human CD3e-biotin

[6] = target: T3, human CD3 epsilon, biotinylated; test: BLI, CD3e-biotin on sensor (summary)
[7] = target: T3, human CD3 epsilon, biotinylated; test: ELISA, CD3e-biotin captured
[8] = target: T2, Human TROP2 ECD (31-274 AA), …; test: TROP2 binding ELISA, biotinylated TROP2 on neutravidin plates
[9] = target: T3, human CD3 epsilon, biotinylated; test: Human CD3 binding ELISA
Cyno CD3 = target: T4, Cyno CD3 (Antigen was biotinylated for capture on neutravidin plates; the site of biotin and any tag are not stated.); test: Cyno CD3 binding ELISA
T4 construct: also called cynomolgus monkey CD3
T4 chain: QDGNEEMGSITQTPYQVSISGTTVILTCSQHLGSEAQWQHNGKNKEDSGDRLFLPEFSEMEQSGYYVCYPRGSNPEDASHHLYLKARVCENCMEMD

[10] = target: T2, Human TROP2 ECD (31-274 AA), …; test: ELISA, immobilized TROP2, HRP secondary antibody
[11] = target: T1, Human TROP2 full length, on tumor cells …; test: cell-based or functional assay; remark: listed apart in the source
[12] = target: T1, Human TROP2 full length, on tumor cells …; test: cell-based or functional assay; remark: listed apart in the source
[13] = target: T2, Human TROP2 ECD (31-274 AA), …; test: BLI, human TROP2-biotin (10 nM) on sensor, 50 nM TCE
[14] = target: T1, Human TROP2 full length, on tumor cells …; test: cell-based or functional assay; remark: listed apart in the source
[15] = target: T5, Cynomolgus monkey TROP2 full length, on recombinant HEK293 cells (cynomolgus monkey, UniProt P09758 31-323 (human entry)); test: cell-based or functional assay
T5 chain: T1 sequence with M32V, S63N, I200V, M262V, T268S

T3 sequence (P07766 23-126 limits assumed): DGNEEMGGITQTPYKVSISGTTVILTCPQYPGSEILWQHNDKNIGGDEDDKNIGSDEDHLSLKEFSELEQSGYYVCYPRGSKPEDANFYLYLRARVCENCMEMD

B1: TCE-9 (anti-CD3 scFv wt + linker + anti-TROP2 HC wt; anti-TROP2 LC wt) (bispecific antibody)
light: DIQLTQSPSSLSASVGDRVSITCKASQDVSIAVAWYQQKPGKAPKLLIYSASYRYTGVPDRFSGSGSGTDFTLTISSLQPEDFAVYYCQQHYITPLTFGAGTKVEIKRTVAAPSVFIFPPSDEQLKSGTASVVCLLNNFYPREAKVQWKVDNALQSGNSQESVTEQDSKDSTYSLSSTLTLSKADYEKHKVYACEVTHQGLSSPVTKSFNRGEC
heavy: not shown
With B1 the “H292 Cytotox EC50” value [1] was 0.0007 nM, the “H292 Cytotox EC50” value [2] was 0.0007 nM and the “H292 Cytotox EC50” value [3] was 0.0007 nM.

B2: TCE-45 (anti-CD3 scFv F104A, anti-TROP2 HC D109A) (bispecific antibody)
light: B1 light
heavy: not shown
For B2, the EC50 [4] was 0.893 nM.

B3: TCE-44 (bispecific antibody)
light chain (anti-TROP2 LC wt): B1 light
heavy chain (anti-CD3 scFv H101A + linker + anti-TROP2 D109A HC): not shown
notes: also called anti-CD3 scFv (H101A) + linker + anti-TROP2 (D109A) HC; anti-TROP2 LC wt
B3 showed an EC50 [4] of 1.38 nM and an EC50 [5] of 0.595 nM.

B4: TCE-34 (anti-CD3 scFv F240A, anti-TROP2 wt) (bispecific antibody)
light: B1 light
heavy: not shown
With B4 the “CD3 t1/2” value [6] was 39 s, the EC50 [7] was 0.6 nM and the “H292 Cytotox EC50” value [3] was 0.02 nM.

B5: TCE-39 (anti-CD3 scFv F104A, anti-TROP2 HC F108A) (bispecific antibody)
light: B1 light
heavy: not shown
B5 was tested, and the EC50 [8] was 1.02 nM, the EC50 [9] was 0.761 nM and the EC50 (Cyno CD3) was 0.671 nM.

B6: TCE-7 (TROP2 Fab HC F108A TCE, scFv on the Fab HC) (bispecific antibody)
light: B1 light
heavy: not shown
notes: Description names a HisTag on the HC
With B6 the EC50 [10] was 1.4 nM, the “TCE Cytotoxicity EC50, H292 + CD8+ T cells” value [11] was 0.0056 nM and the “TCE Cytotoxicity EC50, HCT116 + CD8+ T cells” value [11] was 0.206 nM. The “TCE Cytotoxicity EC50, MDAMB231 + CD8+ T cells” value [11] was 0.0478 nM.

B7: TCE-41 (anti-CD3 scFv with P41S, A49G, N87S and further mutations as in TCE-35; anti-TROP2 HC F108A) (bispecific antibody)
light: B1 light
heavy: EVQLVESGGGLVQPGGSLKLSCAASGFTFNKYAMNWVRQASGKGLEWVGRIRSKYNNYATYYADSVKDRFTISRDDSKNTAYLQMNSLKTEDTAVYYCVRHGNFGNSYISYWAYWGQGTLVTVSSGGGGSGGGGSGGGGSQTVVTQEPSFSVSPGGTVTLTCRSSTGAVTSGNYANWVQQTPGQAPRGLIGGTKFLAPGVPDRFSGSILGNKAALTITGAQADDESDYYCVLWYSNRWVFGGGTKLTVLGGGGSQVQLQQSGSELKKPGASVKVSCKASGYTFTNYGMNWVKQAPGQGLKWMGWINTYTGEPTYTDDFKGRFAFSLDTSVSTAYLQISSLKADDTAVYFCARGGFGSSYWYADVWGQGSLVTVSSASTKGPSVFPLAPSSKSTSGGTAALGCLVKDYFPEPVTVSWNSGALTSGVHTFPAVLQSSGLYSLSSVVTVPSSSLGTQTYICNVNHKPSNTKVDKKVEPKSC
In the case of B7, the “H292 Cytotox EC50” value [12] is reported as 0.003 nM, the Kd [13] is reported as 1.22 nM and the “HCT116 Cytotox EC50” value [14] is reported as 0.073 nM.

B8: TCE-40 (anti-CD3 scFv F240A, anti-TROP2 HC F108A) (bispecific antibody)
light: B1 light
heavy: not shown
In the case of B8, the EC50 [9] is reported as 0.531 nM, the “CynoTROP2 + HEK293 cells Cytotox EC50” value [15] is reported as 0.005 nM and the EC50 (Cyno CD3) is reported as 0.482 nM. The “HCT116 Cytotox EC50” value [14] was greater than 3 nM.

B9: TCE-4 (TROP2 Fab HC F108A TCE, scFv on the Fab LC) (bispecific antibody)
light: not shown
heavy: QVQLQQSGSELKKPGASVKVSCKASGYTFTNYGMNWVKQAPGQGLKWMGWINTYTGEPTYTDDFKGRFAFSLDTSVSTAYLQISSLKADDTAVYFCARGGFGSSYWYADVWGQGSLVTVSSASTKGPSVFPLAPSSKSTSGGTAALGCLVKDYFPEPVTVSWNSGALTSGVHTFPAVLQSSGLYSLSSVVTVPSSSLGTQTYICNVNHKPSNTKVDKKVEPKSC
notes: Description names HisTag AviTag on the HC
In the case of B9, the EC50 [10] is reported as 7.3 nM, the “TCE Cytotoxicity EC50, H292 + CD8+ T cells” value [11] is reported as 0.0004 nM and the “TCE Cytotoxicity EC50, HCT116 + CD8+ T cells” value [11] is reported as 0.0183 nM. For the same binder, the “TCE Cytotoxicity EC50, MDAMB231 + CD8+ T cells” value [11] was 0.0063 nM.
